{"source": "paper PMC13066552", "about": "(Nature Communications, 2026)", "proteins": {"B1": {"name": "Bpa 45-153 (domain or fragment)", "chain": "AKVMRIGTMIKQLLEEVRAAPLDEASRNRLRDIHATSIRELEDGLAPELREELDRLTLPFNEDAVPSDAELRIAQAQLVGWLEGLFHGIQTALFAQQMAARAQLQQMRQ"}}, "molecular_target": "the molecule itself", "assay": "methyl-TROSY NMR spectra compared", "data": [{"protein": "B1", "values": [{"measurement": "stoichiometry N", "result": 4, "unit": "subunits"}]}]}
